Patent EP3080145B1

Key:
[1] = target: HFBI variant D40Q/D43N (Trichoderma reesei) (UniProt P52754); test: QCM-D, enzyme injected over adsorbed D40Q/D43N layer, pH series
[2] = target: HFBI variant D40Q/D43N (Trichoderma reesei) (UniProt P52754); test: QCM-D, enzyme injected over adsorbed D40Q/D43N layer, around pH 5

Sequence of UniProt P52754 (P52754 23-97 D62Q/D65N, form in doubt): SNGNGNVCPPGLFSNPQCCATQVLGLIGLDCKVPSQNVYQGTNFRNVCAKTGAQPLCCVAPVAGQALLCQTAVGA

Molecule | adsorbed mass [1] [ng/cm^2] | maximum adsorption (adsorbed mass) [2] [ng/cm^2]
Trichoderma reesei xylanase II (from UniProt P36217 34-223) (enzyme) | 55 to 100 | 
Trichoderma reesei cellobiohydrolase I (enzyme, UniProt P62694 18-513, looked up) QSACTLQSETHPPLTWQKCSSGGTCTQQTGSVVIDANWRWTHATNSSTNCYDGNTWSSTLCPDNETCAKNCCLDGAAYASTYGVTTSGNSLSIGFVTQSAQKNVGARLYLMASDTTYQEFTLLGNEFSFDVDVSQLPCGLNGALYFVSMDADGGVSKYPTNTAGAKYGTGYCDSQCPRDLKFINGQANVEGWEPSSNNANTGIGGHGSCCSEMDIWEANSISEALTPHPCTTVGQEICEGDGCGGTYSDNRYGGTCDPDGCDWNPYRLGNTSFYGPGSSFTLDTTKKLTVVTQFETSGAINRYYVQNGVTFQQPNAELGSYSGNELNDDYCTAEEAEFGGSSFSDKGGLTQFKKATSGGMVLVMSLWDDYYANMLWLDSTYPTNETSSTPGAVRGSCSTSSGVPAQVESQSPNAKVTFSNIKFGPIGSTGNPSGGNPPGGNRGTTTTRRPATTTGSSPGPTQSHYGQCGGIGYSGPTVCASGTTCQVLNPYYSQCL |  | 600
